Data published in patent US20190025321A1 (WHITEHEAD INSTITUTE FOR BIOMEDICAL RESEARCH, published 2019).

B1: endogenous CASTOR1 (other, human, UniProt Q8WTX7 1-329, looked up)
chain: MELHILEHRVRVLSVARPGLWLYTHPLIKLLFLPRRSRCKFFSLTETPEDYTLMVDEEGFKELPPSEFLQVAEATWLVLNVSSHSGAAVQAAGVTKIARSVIAPLAEHHVSVLMLSTYQTDFILVREQDLSVVIHTLAQEFDIYREVGGEPVPVTRDDSSNGFPRTQHGPSPTVHPIQSPQNRFCVLTLDPETLPAIATTLIDVLFYSHSTPKEAASSSPEPSSITFFAFSLIEGYISIVMDAETQKKFPSDLLLTSSSGELWRMVRIGGQPLGFDECGIVAQIAGPLAAADISAYYISTFNFDHALVPEDGIGSVIEVLQRRQEGLAS
notes: Detected with an anti-CASTOR1 antiserum; also called GATSL3
B2: CASTOR1 homodimer (other, human, not shown: small tags and cut ends)
chain 1: B1 chain
chain 2: B1 chain
notes: also called CASTOR1-HA with CASTOR1-FLAG; CASTOR1-containing dimers
B3: recombinant CASTOR1 (Cellular Arginine Sensor for mTORC1; protein encoded by the GATS protein-like 3 gene) (other, human, UniProt Q8WTX7 1-329, looked up, not shown: small tags and cut ends)
chain: B1 chain
notes: Expressed from pRK5 vectors in HEK-293T cells; which tag was used depends on the experiment; also called GATSL3; CASTOR1-HA
B4: HA-metap2 (other, UniProt P50579 1-478, looked up, not shown: small tags and cut ends)
chain: MAGVEEVAASGSHLNGDLDPDDREEGAASTAEEAAKKKRRKKKKSKGPSAAGEQEPDKESGASVDEVARQLERSALEDKERDEDDEDGDGDGDGATGKKKKKKKKKRGPKVQTDPPSVPICDLYPNGVFPKGQECEYPPTQDGRTAAWRTTSEEKKALDQASEEIWNDFREAAEAHRQVRKYVMSWIKPGMTMIEICEKLEDCSRKLIKENGLNAGLAFPTGCSLNNCAAHYTPNAGDTTVLQYDDICKIDFGTHISGRIIDCAFTVTFNPKYDTLLKAVKDATNTGIKCAGIDVRLCDVGEAIQEVMESYEVEIDGKTYQVKPIRNLNGHSIGQYRIHAGKTVPIVKGGEATRMEEGEVYAIETFGSTGKGVVHDDMECSHYMKNFDVGHVPIRLPRTKHLLNVINENFGTLAFCRRWLDRLGESKYLMALKNLCDLGIVDPYPPLCDIKGSYTAQFEHTILLRPTCKEVVSRGDDY
notes: Negative control of the co-immunoprecipitations; also called metap2 control protein
B5: endogenous CASTOR2 (other, human, UniProt A6NHX0 1-329, looked up)
chain: MELHILEHRLQVASVAKESIPLFTYGLIKLAFLSSKTRCKFFSLTETPEDYTIIVDEEGFLELPSSEHLSVADATWLALNVVSGGGSFSSSQPIGVTKIAKSVIAPLADQNISVFMLSTYQTDFILVRERDLPFVTHTLSSEFTILRVVNGETVAAENLGITNGFVKPKLVQRPVIHPLSSPSNRFCVTSLDPDTLPAVATLLMDVMFYSNGVKDPMATGDDCGHIRFFSFSLIEGYISLVMDVQTQQRFPSNLLFTSASGELWKMVRIGGQPLGFDECGIVAQISEPLAAADIPAYYISTFKFDHALVPEENINGVISALKVSQAEKH
notes: Detected with an anti-CASTOR2 antiserum; also called GATSL2

How the values were obtained:
[1] = molecular target: T1, endogenous GATOR2 complex (Seh1L, WDR59, WDR24, Sec13 and Mios) (human, UniProt Q9NXC5 1-875; Q96S15 1-790; Q6PJI9 1-974; P55735 2-322; Q96EE3 1-360, limits assumed); experiment: co-immunoprecipitation, anti-FLAG IP of GATOR2 from a HEK-293T line with endogenously FLAG-tagged WDR59, immunoblot for endogenous CASTOR1
T1 construct: Five-subunit complex; In most blots its presence is read from the mios band; also called detected by mios
Method: (§1) FIG. 3A, FIG. 3B, FIG. 3C, FIG. 3D, FIG. 3E and FIG. 3F depict arginine regulates the interaction of GATOR2 with CASTOR1-homodimers and CASTOR1-CASTOR2 heterodimers in cells and in vitro. […] HEK-293T cells cotransfected with the indicated cDNAs were deprived of amino acids for 50 min or starved and restimulated with amino acids for 10 min. Anti-HA immunoprecipitates and cell lysates were analyzed by immunoblotting for levels of the indicated proteins. […] A HEK-293T cell line expressing endogenously FLAG-tagged WDR59 was treated as in (3A) and anti-FLAG immunoprecipitates were analyzed by immunoblotting for the indicated proteins. […] Cells were deprived of leucine, arginine, or all amino acids for 50 min, and restimulated for 10 min with the respective amino acids where indicated. Anti-HA immunoprecipitates were prepared and analyzed as in (3A). […] Anti-HA immunoprecipitates were prepared from HEK-293T cells expressing the indicated cDNAs and deprived of amino acids for 50 min. Indicated amino acids were added directly to the immunoprecipitates, which after re-washing, were analyzed as in (3A). […] The experiment was performed and analyzed as in (3D), except using the indicated concentrations of arginine. […] Anti-HA immunoprecipitates were prepared and analyzed as in (3A).

[2] = molecular target: B4; experiment: co-immunoprecipitation, anti-HA IP from transfected HEK-293T cells, immunoblot for endogenous CASTOR1
[3] = molecular target: T1, endogenous GATOR2 complex (Seh1L, …); experiment: co-immunoprecipitation, anti-HA IP from HEK-293T cells deprived 50 min of all amino acids, leucine or arginine, or restimulated 10 min; immunoblot for endogenous mios
Method: as §1

[4] = molecular target: complete GATOR2 complex, recombinant (WDR24-FLAG, WDR59, mios, sec13, seh1L co-expressed) (UniProt Q96S15 1-790; Q6PJI9 1-974; Q9NXC5 1-875; P55735 1-322; Q96EE3 1-360, limits assumed); experiment: co-immunoprecipitation, anti-FLAG IP (bait WDR24-FLAG) from co-transfected HEK-293T cells, immunoblot for HA-tagged CASTOR1
Source text: FIG. 7A, FIG. 7B, FIG. 7C, FIG. 7D, FIG. 7E and FIG. 7F depicts CASTOR1 and CASTOR2 homologs are present in vertebrates and invertebrates, and the CASTORs and Sestrins bind to distinct sites on GATOR2. […] Sequence alignments are colored with respect to sequence identity as in FIG. 1C. The first and second ACT domains are annotated above the alignment with blue and orange bars, respectively. […] The sequence alignment is annotated as in (7B). FIG. 7E depicts the GATOR2 components WDR24, mios, and seh1L form a minimal complex that is sufficient to co-immunoprecipitate CASTOR1. HEK-293T cells were cotransfected with the indicated cDNAs, and anti-FLAG immunoprecipitates were analyzed as in FIG. 1D.
Where indicated, for transient cotransfection experiments, 2 million HEK-293T cells were plated in 10 cm dishes and transfected 24 hrs later using the polyethylenimine method (Boussif et al., 1995) with the indicated pRK5-based expression vectors: 300 ng HA-metap2, 40 ng CASTOR1-HA, 80 ng CASTOR1-FLAG, 40 ng CASTOR2-HA, 80 ng CASTOR2-FLAG; 100 ng WDR24-FLAG, 100 ng WDR59, 100 ng mios, 150 ng sec13, 150 ng seh1L, 10 ng or 40 ng or 100 ng or 600 ng of myc-Sestrin2 or myc-CASTOR2; 2 ng FLAG-56K1, 15 ng or 60 ng HA-CASTOR2, 75 ng and 175 ng of CASTOR1-HA. The total amount of plasmid DNA in each transfection was normalized to 5 μg with empty pRK5. […]

[5] = molecular target: T1, endogenous GATOR2 complex (Seh1L, …); experiment: co-immunoprecipitation, anti-HA IP from transfected HEK-293T cells starved of all amino acids 50 min, immunoblot for endogenous mios
Method: FIG. 8A depicts validation of the anti-serum used to detect endogenous CASTOR2. Lysates were prepared from HEK-293T lines stably expressing the indicated shRNAs and analyzed by immunoblotting for levels of indicated proteins. FIG. 8B depicts validation of the anti-serum used to detect endogenous CASTOR1. Lysates were prepared from HEK-293T stably lines expressing the indicated shRNAs and analyzed as in (8C). The arrow denotes the band corresponding to endogenous CASTOR1. […] HEK-293T cells were cotransfected with the indicated cDNAs in expression vectors, starved of all amino acids for 50 minutes, and anti-HA immunoprecipitates were analyzed as in FIG. 1D. […] HEK-293T cells were cotransfected with the indicated cDNAs in expression vectors, starved of all amino acids for 50 minutes, and anti-HA immunoprecipitates were analyzed as in FIG. 1D.

[6] = molecular target: T2, GSK3β (human, UniProt P49841); experiment: control immunoprecipitation with an anti-GSK3β antibody from HEK-293T cells starved of or restimulated with amino acids
T2 construct: endogenous, untagged; also called endogenous GSK3β, control immunoprecipitation
Method: FIG. 9A, FIG. 9B, FIG. 9C, FIG. 9D and FIG. 9E depict arginine regulates the interaction of GATOR2 with CASTOR1-containing complexes in cells and in vitro. […] HEK-293T cells cotransfected with the indicated cDNAs and stably expressing the indicated shRNAs were deprived of amino acids in the cell media for 50 min. Anti-HA immunoprecipitates were analyzed by immunoblotting for the indicated proteins. […] HEK-293T cells were starved or restimulated with amino acids, and immunoprecipitates were prepared from these cells using an antibody directed against GSK3β or WDR24. Immunoprecipitates were analyzed by immunoblotting for the indicated proteins. […] Stable expression lines of HEK-293T cells stably expressing the denoted proteins were cotransfected with the indicated cDNAs and treated as in FIG. 3A. Anti-HA immunoprecipitates were analyzed by immunoblotting for the levels of indicated proteins. FIG. 9D depicts deprivation of arginine, but not leucine, is sufficient to promote the association of endogenous GATOR2 with recombinant CASTOR1-CASTOR2 heterodimers. HEK-293T cells cotransfected with the indicated cDNAs were treated and analyzed as in FIG. 3C. […] Anti-HA immunoprecipitates were prepared and analyzed as in FIG. 3E.

[7] = molecular target: B4; experiment: co-immunoprecipitation, anti-HA IP from transfected HEK-293T cells

T2 sequence (P49841 whole entry): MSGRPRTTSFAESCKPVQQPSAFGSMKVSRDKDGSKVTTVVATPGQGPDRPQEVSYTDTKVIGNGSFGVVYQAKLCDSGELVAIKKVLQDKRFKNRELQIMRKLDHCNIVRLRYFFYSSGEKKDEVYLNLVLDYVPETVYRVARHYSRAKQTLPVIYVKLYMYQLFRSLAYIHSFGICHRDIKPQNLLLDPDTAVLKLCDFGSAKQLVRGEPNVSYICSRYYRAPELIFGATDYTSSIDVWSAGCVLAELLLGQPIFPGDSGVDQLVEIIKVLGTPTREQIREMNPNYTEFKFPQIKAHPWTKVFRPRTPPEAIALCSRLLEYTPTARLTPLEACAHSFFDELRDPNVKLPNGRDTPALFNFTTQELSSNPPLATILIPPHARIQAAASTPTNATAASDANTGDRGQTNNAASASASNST

Binder: B1
- binding result [1]: binds
- binding result [2]: no binding

Binder: B2
- binding result [3]: binds

Binder: B3
- binding result [4]: binds

Binder: B4
- binding result [5]: no binding

Binder: B5
- binding result [6]: no binding
- binding result [7]: no binding
